For data set [1] the following is noted: cited from earlier work.
Another data set concerns human thrombi. As to the kind of experiment: MRI of in vitro formed human plasma thrombi stained with Gadolinium loaded antibody-dendrimer constructs. It counts as cell-based. The protocol:
Antibody-Dendrimer constructs (1.5 nmol) were loaded with Gadolinium by adding 64 nmol GdCl3.6H2O in PBS (0.1M, pH 7.4) overnight at room temperature under shaking. Excess Gadolinium was removed by dialysis (10,000 Dalton dialysis membrane, 12 h against 500 mL PBS with 3 buffer changes every 4 h).
To form human thrombi in vitro 1 mL platelet rich plasma (citrated blood spun down at 1000 rpm for 10 min) was mixed with 100 μL ADP, 88 μL Actin, 25 μL 1 M CaCl2 in a 1.5 mL reaction tube. Samples were incubated for 12 min at 37° C. in a water bath, incubated with antibody-dendrimer fusion product for another 30 min at 37° C. under continuous rotation. Thrombi were washed 3 times with 2 mL PBS for 10 min and fixed in formalin solution (1%) before imaging.
MRI of thrombi was performed on a 4.7 Tesla animal MRI scanner (Biospin Bruker). T1 weighted images with TE/TR 15 ms/350 ms were taken with a resolution of 512×512 μm (FOV 7 cm, average 4). 10 slices of 1 mm thickness were taken.

Like-named read-outs stand apart in the source and are kept apart here.

In the case of “α-methoxy-ω-{N-(2-cholesteryloxy-[1,3]dioxolan-4-yl)methylamido}-polyethyleneglycol110”, the “stability of the conjugate” value is “moderately less stable” in data set [1] (pH 4) and “very stable” in data set [1] (pH 5). For “MAL-(CH2)2CONH-PEG1100-CO-NEOEOEN[Su(NPN)2][Lys]8[Su-p-Bn-DTPA]16 [Example 7v]”, the “MRI signal, control experiment” value in the data set on human thrombi (non reduced C-terminal cysteine antibody incubated with dendrimer) and in the data set on human thrombi (non-modified antibody (no Traut's reagent) incubated with dendrimer) was “did not show any MRI signal” in each case. As to “α-methoxy-ω-{N-(2-octadecyloxy-[1,3]dioxolan-4-yl)methylamido}-polyethyleneglycol110”, the “stability of the conjugate” value in data set [1] (pH 4) and in data set [1] (pH 5) was “good stability” in each case. On to “α-methoxy-ω-{N-2-(3-hydroxypropyl-cholesterylcarbarnate)-2-methyl-[1,3]dioxan-5-yl-amido}-polyethyleneglycol110”, for which the “stability of the conjugate” value in data set [1] (acidic conditions (pH 4-6)) is “not stable”.

Regarding “α-methoxy-ω-{N-(2-methyl-s-octadecyloxy-[1,3]dioxan-5-yl)-amido}-polyethyleneglycol110”, the “stability of the conjugate” value in data set [1] (acidic conditions (pH 4-6)) is given as “not stable”.

In the case of “[TFA.NH2(CH2)5NHSu]NEOEOEN[Su(NPN)2]Lys8[Su-p-Bn-DTPA]16 [Example 9iv]”, the “MRI signal, control experiment” value in the data set on human thrombi (antibody incubated with dendrimer but without the Transglutaminase coupling enzyme) was “did not show any MRI signal”.

(Values after patent US9127130B2, “Polylysine dendrimer contrast agent” (STARPHARMA PTY LTD., priority 2006, dated 2015).)
